T1: HCoV229E spike protein (HCoV-229E, UniProt P15423 17-1103)
T1 chain: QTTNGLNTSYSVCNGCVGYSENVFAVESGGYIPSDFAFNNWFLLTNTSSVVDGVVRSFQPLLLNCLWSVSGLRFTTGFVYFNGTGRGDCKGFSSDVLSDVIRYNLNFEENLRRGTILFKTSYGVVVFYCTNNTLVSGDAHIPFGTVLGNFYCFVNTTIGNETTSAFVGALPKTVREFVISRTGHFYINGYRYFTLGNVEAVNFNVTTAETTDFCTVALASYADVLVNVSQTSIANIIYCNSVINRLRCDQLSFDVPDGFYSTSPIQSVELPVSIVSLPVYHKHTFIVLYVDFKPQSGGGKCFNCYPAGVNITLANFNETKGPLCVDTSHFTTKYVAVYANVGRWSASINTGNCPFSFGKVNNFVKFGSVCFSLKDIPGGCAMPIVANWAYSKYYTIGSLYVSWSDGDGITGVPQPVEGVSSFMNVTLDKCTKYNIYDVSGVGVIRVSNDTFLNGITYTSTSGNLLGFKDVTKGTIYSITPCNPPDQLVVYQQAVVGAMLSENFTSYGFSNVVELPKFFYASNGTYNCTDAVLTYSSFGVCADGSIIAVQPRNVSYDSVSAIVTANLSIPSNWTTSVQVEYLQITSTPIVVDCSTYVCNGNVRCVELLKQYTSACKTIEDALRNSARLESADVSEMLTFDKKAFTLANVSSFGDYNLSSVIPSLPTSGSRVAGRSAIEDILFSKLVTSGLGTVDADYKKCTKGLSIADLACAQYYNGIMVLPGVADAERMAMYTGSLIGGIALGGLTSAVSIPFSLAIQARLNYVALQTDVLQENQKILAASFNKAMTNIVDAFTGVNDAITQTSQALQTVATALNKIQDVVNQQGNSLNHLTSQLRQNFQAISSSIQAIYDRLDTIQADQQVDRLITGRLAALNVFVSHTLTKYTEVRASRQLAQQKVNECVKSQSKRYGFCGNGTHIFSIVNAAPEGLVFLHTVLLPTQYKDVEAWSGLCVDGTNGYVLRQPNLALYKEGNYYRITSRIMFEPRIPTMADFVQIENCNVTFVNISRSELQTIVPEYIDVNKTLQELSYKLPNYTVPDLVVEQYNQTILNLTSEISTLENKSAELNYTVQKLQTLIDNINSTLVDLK

T2: MERS spike protein (MERS-CoV, UniProt K9N5Q8 18-1296)
T2 chain: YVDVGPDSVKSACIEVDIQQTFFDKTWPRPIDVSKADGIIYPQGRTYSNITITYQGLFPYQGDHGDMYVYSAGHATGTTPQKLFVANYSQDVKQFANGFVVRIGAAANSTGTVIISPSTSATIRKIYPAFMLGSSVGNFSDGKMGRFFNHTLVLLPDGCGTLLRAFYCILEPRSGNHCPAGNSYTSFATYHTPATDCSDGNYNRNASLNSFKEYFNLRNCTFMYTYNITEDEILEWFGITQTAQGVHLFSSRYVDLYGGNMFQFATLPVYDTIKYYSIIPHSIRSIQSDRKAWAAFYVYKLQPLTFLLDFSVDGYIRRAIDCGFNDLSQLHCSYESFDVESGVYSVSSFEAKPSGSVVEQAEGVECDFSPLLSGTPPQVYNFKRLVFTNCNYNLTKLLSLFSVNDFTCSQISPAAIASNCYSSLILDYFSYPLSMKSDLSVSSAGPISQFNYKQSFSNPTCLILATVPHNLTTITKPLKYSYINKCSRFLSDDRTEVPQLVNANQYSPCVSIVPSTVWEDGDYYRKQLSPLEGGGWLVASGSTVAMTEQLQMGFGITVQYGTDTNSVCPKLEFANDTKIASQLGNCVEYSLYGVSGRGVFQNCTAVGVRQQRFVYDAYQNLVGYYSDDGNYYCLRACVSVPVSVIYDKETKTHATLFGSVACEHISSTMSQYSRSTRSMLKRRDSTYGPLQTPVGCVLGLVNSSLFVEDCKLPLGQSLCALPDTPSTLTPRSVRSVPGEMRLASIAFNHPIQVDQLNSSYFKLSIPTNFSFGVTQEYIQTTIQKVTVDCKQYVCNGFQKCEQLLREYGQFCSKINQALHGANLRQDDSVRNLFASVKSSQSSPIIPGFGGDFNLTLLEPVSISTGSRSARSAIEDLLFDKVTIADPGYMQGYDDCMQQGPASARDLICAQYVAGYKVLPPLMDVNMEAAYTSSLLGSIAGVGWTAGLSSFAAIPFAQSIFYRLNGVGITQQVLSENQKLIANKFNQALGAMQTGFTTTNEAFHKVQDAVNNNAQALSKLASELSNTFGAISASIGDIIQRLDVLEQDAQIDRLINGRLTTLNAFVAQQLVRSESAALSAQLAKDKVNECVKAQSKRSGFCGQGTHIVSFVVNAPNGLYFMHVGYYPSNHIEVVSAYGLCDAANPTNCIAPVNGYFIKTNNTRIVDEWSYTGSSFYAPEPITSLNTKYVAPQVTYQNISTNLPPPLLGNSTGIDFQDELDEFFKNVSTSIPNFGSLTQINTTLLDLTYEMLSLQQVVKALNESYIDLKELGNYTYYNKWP


Experiments:
Test in all cases: ELISA
HCoV229E spike protein = target: T1, HCoV229E spike protein
MERS spike protein = target: T2, MERS spike protein
SARS-CoV-2 S2 domain = SARS-CoV-2 S2 domain (UniProt P0DTC2 686-1213)
[1] = target: SARS-CoV-2 prefusion stabilized trimer protein (WIV02 isolate spike protein) (UniProt P0DTC2 14-1213)

Binder | EC50 (HCoV229E spike protein) [nM] | EC50 (MERS spike protein) [nM] | EC50 (SARS-CoV-2 S2 domain) [nM] | EC50 [1] [nM]
1-L10-A (antibody, V domains shown) VH: EVKLEESGGGLVQPGGSMKLSCVASGFTFNNYWMNWVRQSPEKGLEWVAQMRLKSDNYATHYAESVKGRFTISRDDSKSSVYLQMNNLRAEDTGIYYCIEGYWTYWGQGTLVTVSA VL: QIVLTQSPAIMSASLGERVTMTCTASSSVSSSYLHWYQQKPGSSPKLWIYSTSNLASGVPARFSGNGSGTSYSLTISSMEAEDAATYYCLQYHRSPPYTFGGGTKLEIK | 0.12 | 3.47 |  | 
9-F6-A (antibody, V domains shown) VH: EVQLQQSGPELVKPGASVKMSCKASGYTFTSYIMHWVKQKPGQGLEWIGYILPYNDGTKYNEKFKGKATLTSDKSSSTAYMELRSLTSEDSAVYYCARWGYSNFLDSWGQGTTLTVSS VL: DIQMTQTTSSLSASLGDRVTISCRASQDINNYLNWYQQKPDGTVKLLIYYTSRLHSGVPSRFSGSGSGTDYSLTIRNLEQEDIATYFCQQGNTLPPTFGGGTKLEIK | 0.03 | 1.67 |  | 
1-B11-A (antibody, V domains shown) VH: QVQLQQSGPELVKPGASVKISCKASGYTFTDHYINWVKQRPGQGLEWIGWIFPGSGSTYYNEQFKGKATLTVDKSSNTAYMLLSSLTSEDSAVYFCARSGGLRLGFAYWGQGTLVTVSA VL: DIQMTQTTSSLSASLGDRVTISCRASQDISNYLNWYQQKPDGTVKLLIYYTSRLHSGVPSRFSGSGSGTDYSLTISNLEQEDISTYFCQQVNTLPYTFGGGTKLEIK |  | 0.63 | 6.62 | 10.3
6-O12-A (antibody, V domains shown) VH: QVQLQQPGTELVKPGASVKLSCKASGYTFTSYWMHWVKQRPGQGLEWIGNINPSNGGTNYNEKFRSKATLTVDKSSSTAYMQLSSLTSEDSAVYYCARLGWFLPLGSWGQGTTLTVSS VL: QIVLTQSPAIMSASLGEVITLTCSASSSVSYMHWYQQKSGTSPKLLIYSTSNLASGVPSRFSGSGSGTFYSLTISSVEAEDAADYYCHQWSGYMYTFGGGTKLEIK | 0.15 | 0.25 |  | 
7-D7-A (antibody, V domains shown) VH: QVQLKESGPGLVAPSQSLSITCTVSGFSLTSYAISWVRQPPGKGLEWLGVIWPGGGTNYNSALKSRLSISKDNSKSQVFLKMNSLQTDDTAKYYCARTGYYFDYWGQGTTLTVSS VL: QLILTQSPAIMSASPGEKVTMTCSASLSVNYMYWFQQKPGTSPKRWIHDTSKLASGVPARFSGSGSGTSYSLTISSMEAEDAATYYCQQWSSNPPMYTFGGGTKLEIK | 0.13 | 0.9 |  | 
8-A17-A (antibody, V domains shown) VH: QVQLKESGPGLVAPSQSLSITCTVSGFSLTSYAISWVRQPPGKGLEWLGVVWPGGGTNYNSALKSRLSINKDNSKSQVFLKMNSLQTDDTGRYYCARTGYHFDYWGQGTTLTVSS VL: QIVLTQSPAIMSASPGEKVTMTCSVSSSVSYMHWYQQKSGTSPKRWIYDTSKLASGVPARFSGSGSGTSYSLTISSMEAEDAATYYCQQWSSNPPMYTFGGGTKLEIK | 0.01 | 0.49 |  | 
2-G20-A (antibody, V domains shown) VH: EVQLQQSGPELVKPGASVKMSCKASGYTFPSYVLHWVKQKPGQGLEWIGYIYPYNDGTNYNEKFKGKATLTSDKSSSTAYMELSSLTSEDSAVYYCARGDYGDSAWFPYWGQGTLVTVSA VL: DIVLTQSPASLAVSLGQRATISCRASKSVSTSGYSYMHWYQQKPGQPPKLLIYLASNLKSGVPARFSGGGSGTDFTLNIHPVEEEDAATYYCQLSRELPWTFGGGTKLEIK | 0.1 | 8.71 |  | 

From US20240239875A1 (published 2024)
